# How the values were obtained:
# [1] = parameters: species or system human; details: in vivo
# Description: (§1) Key inclusion criteria: Histologically confirmed mNSCLCm Treatment naïve, and PD-L1 expression≥1% are eligible. Key exclusion criteria: Untreated, progressive, or symptomatic brain metastases, Active uncontrolled autoimmune disorders, and Systemic steroid use equivalent to >10 mg prednisone. […] The primary endpoint was overall response rate (ORR). Additional endpoints included correlative analyses, DOR, PFS and OS. The trial used a Simon Mini-Max two-stage design with interim analysis planned after the first stage when 23 patients were enrolled in each arm.
# CD8+ T cells = assay: IHC of CD8+ TIL in pre- and on-treatment core biopsies; type: in vivo, human; details: biopsy cycle 1 days 15-21; p=0.001 Arm A, p=0.002 Arm B
# Description: IHC was performed to determine presence of CD8+ T cells and CD33+ myeloid cells. Biopsies were scored using a 0-3 scale separately in the tumor stroma and tumor beds.
# [2] = tested on: metastatic NSCLC (mNSCLC); assay: Phase II randomized trial, best response / ORR; type: in vivo, human
# Description: as §1, with “Key” for “Key inclusion criteria: Histologically confirmed mNSCLCm Treatment naïve, and PD-L1 expression≥1% are eligible. Key”
substance,measurement,setting,value
pembrolizumab [Arm A],ALT increased Gr 1,[1],0
same,ALT increased Gr 2,[1],0
same,ALT increased Gr 3,[1],1 (4%)
same,ALT increased Gr 4,[1],0
same,ALT increased Total,[1],1 (4%)
same,AST increased Gr 1,[1],0
same,AST increased Gr 2,[1],0
same,AST increased Gr 3,[1],1 (4%)
same,AST increased Gr 4,[1],0
same,AST increased Total,[1],1 (4%)
same,Alkaline phosphatase increased Gr 1,[1],0
same,Alkaline phosphatase increased Gr 2,[1],0
same,Alkaline phosphatase increased Gr 3,[1],0
same,Alkaline phosphatase increased Gr 4,[1],0
same,Alkaline phosphatase increased Total,[1],0
same,Alopecia Gr 1,[1],0
same,Alopecia Gr 2,[1],0
same,Alopecia Gr 3,[1],0
same,Alopecia Gr 4,[1],0
same,Alopecia Total,[1],0
same,Anemia Gr 1,[1],0
same,Anemia Gr 2,[1],0
same,Anemia Gr 3,[1],0
same,Anemia Gr 4,[1],0
same,Anemia Total,[1],0
same,Anorexia Gr 1,[1],1 (4%)
same,Anorexia Gr 2,[1],0
same,Anorexia Gr 3,[1],0
same,Anorexia Gr 4,[1],0
same,Anorexia Total,[1],1 (4%)
same,Arthralgia Gr 1,[1],0
same,Arthralgia Gr 2,[1],0
same,Arthralgia Gr 3,[1],0
same,Arthralgia Gr 4,[1],0
same,Arthralgia Total,[1],0
same,Chest pain - cardiac Gr 1,[1],0
same,Chest pain - cardiac Gr 2,[1],0
same,Chest pain - cardiac Gr 3,[1],1 (4%)
same,Chest pain - cardiac Gr 4,[1],0
same,Chest pain - cardiac Total,[1],1 (4%)
same,Creatinine increased Gr 1,[1],0
same,Creatinine increased Gr 2,[1],0
same,Creatinine increased Gr 3,[1],0
same,Creatinine increased Gr 4,[1],0
same,Creatinine increased Total,[1],0
same,Diarrhea Gr 2,[1],1 (4%)
same,Diarrhea Gr 3,[1],0
same,Diarrhea Gr 4,[1],0
same,Diarrhea Total,[1],3 (13%)
same,Dysgeusia Gr 1,[1],0
same,Dysgeusia Gr 2,[1],0
same,Dysgeusia Gr 3,[1],0
same,Dysgeusia Gr 4,[1],0
same,Dysgeusia Total,[1],0
same,Fatigue Gr 1,[1],1 (4%)
same,Fatigue Gr 2,[1],1 (4%)
same,Fatigue Gr 3,[1],0
same,Fatigue Gr 4,[1],0
same,Fatigue Total,[1],2 (8%)
same,Heart failure Gr 1,[1],0
same,Heart failure Gr 2,[1],0
same,Heart failure Gr 3,[1],0
same,Heart failure Gr 4,[1],0
same,Heart failure Total,[1],0
same,Hyponatremia Gr 1,[1],0
same,Hyponatremia Gr 2,[1],0
same,Hyponatremia Gr 3,[1],1 (4%)
same,Hyponatremia Gr 4,[1],0
same,Hyponatremia Total,[1],1 (4%)
same,Hypothyroidism Gr 1,[1],0
same,Hypothyroidism Gr 2,[1],1 (4%)
same,Hypothyroidism Gr 3,[1],0
same,Hypothyroidism Gr 4,[1],0
same,Hypothyroidism Total,[1],1 (4%)
same,Nausea Gr 1,[1],0
same,Nausea Gr 2,[1],0
same,Nausea Gr 3,[1],0
same,Nausea Gr 4,[1],0
same,Nausea Total,[1],0
same,Pain Gr 1,[1],0
same,Pain Gr 2,[1],0
same,Pain Gr 3,[1],0
same,Pain Gr 4,[1],0
same,Pain Total,[1],0
same,Pericardial effusion/ tamponade Gr 1,[1],0
same,Pericardial effusion/ tamponade Gr 2,[1],0
same,Pericardial effusion/ tamponade Gr 3,[1],0
same,Pericardial effusion/ tamponade Gr 4,[1],0
same,Pericardial effusion/ tamponade Total,[1],0
same,Platelet count decreased Gr 1,[1],0
same,Platelet count decreased Gr 2,[1],0
same,Platelet count decreased Gr 3,[1],0
same,Platelet count decreased Gr 4,[1],0
same,Platelet count decreased Total,[1],0
same,Pneumonitis Gr 1,[1],0
same,Pneumonitis Gr 2,[1],0
same,Pneumonitis Gr 3,[1],1 (4%)
same,Pneumonitis Gr 4,[1],0
same,Pneumonitis Total,[1],1 (4%)
same,Pruritis Gr 2,[1],0
same,Pruritis Gr 3,[1],0
same,Pruritis Gr 4,[1],0
same,QT prolongation Gr 1,[1],0
same,QT prolongation Gr 2,[1],0
same,QT prolongation Gr 3,[1],0
same,QT prolongation Gr 4,[1],0
same,QT prolongation Total,[1],0
same,Rash maculo-papular Gr 1,[1],0
same,Rash maculo-papular Gr 2,[1],0
same,Rash maculo-papular Gr 3,[1],1 (4%)
same,Rash maculo-papular Gr 4,[1],0
same,Rash maculo-papular Total,[1],1 (4%)
same,Thromboembolic event Gr 1,[1],0
same,Thromboembolic event Gr 2,[1],0
same,Thromboembolic event Gr 3,[1],0
same,Thromboembolic event Gr 4,[1],0
same,Thromboembolic event Total,[1],0
same,Total AEs Gr 1,[1],8
same,Total AEs Gr 2,[1],6
same,Total AEs Gr 3,[1],6
same,Total AEs Gr 4,[1],0
same,Total AEs Total,[1],20
same,Total irAEs Gr 1,[1],4
same,Total irAEs Gr 2,[1],2
same,Total irAEs Gr 3,[1],3
same,Total irAEs Gr 4,[1],0
same,Total irAEs Total,[1],9
same,Vomiting Gr 1,[1],0
same,Vomiting Gr 2,[1],0
same,Vomiting Gr 3,[1],0
same,Vomiting Gr 4,[1],0
same,Vomiting Total,[1],0
same,irAE AST increased Gr 1,[1],0
same,irAE AST increased Gr 2,[1],0
same,irAE AST increased Gr 3,[1],0
same,irAE AST increased Gr 4,[1],0
same,irAE AST increased Total,[1],0
same,irAE Adrenal insufficiency Gr 1,[1],0
same,irAE Adrenal insufficiency Gr 2,[1],1 (4%)
same,irAE Adrenal insufficiency Gr 3,[1],0
same,irAE Adrenal insufficiency Gr 4,[1],0
same,irAE Adrenal insufficiency Total,[1],1 (4%)
same,irAE Arthralgia Gr 1,[1],0
same,irAE Arthralgia Gr 2,[1],0
same,irAE Arthralgia Gr 3,[1],0
same,irAE Arthralgia Gr 4,[1],0
same,irAE Arthralgia Total,[1],0
same,irAE Brachial plexopathy Gr 1,[1],0
same,irAE Brachial plexopathy Gr 2,[1],0
same,irAE Brachial plexopathy Gr 3,[1],0
same,irAE Brachial plexopathy Gr 4,[1],0
same,irAE Brachial plexopathy Total,[1],0
same,irAE Colitis Gr 1,[1],0
same,irAE Colitis Gr 2,[1],1 (4%)
same,irAE Colitis Gr 3,[1],0
same,irAE Colitis Gr 4,[1],0
same,irAE Colitis Total,[1],1 (4%)
same,irAE Hepatitis Gr 1,[1],0
same,irAE Hepatitis Gr 2,[1],0
same,irAE Hepatitis Gr 3,[1],1 (4%)
same,irAE Hepatitis Gr 4,[1],0
same,irAE Hepatitis Total,[1],1 (4%)
same,irAE Hypothyroidism Gr 1,[1],0
same,irAE Hypothyroidism Gr 2,[1],0
same,irAE Hypothyroidism Gr 3,[1],0
same,irAE Hypothyroidism Gr 4,[1],0
same,irAE Hypothyroidism Total,[1],0
same,irAE Pancreatic atrophy Gr 1,[1],0
same,irAE Pancreatic atrophy Gr 2,[1],0
same,irAE Pancreatic atrophy Gr 3,[1],0
same,irAE Pancreatic atrophy Gr 4,[1],0
same,irAE Pancreatic atrophy Total,[1],0
same,irAE Pericardial effusion Gr 1,[1],0
same,irAE Pericardial effusion Gr 2,[1],0
same,irAE Pericardial effusion Gr 3,[1],0
same,irAE Pericardial effusion Gr 4,[1],0
same,irAE Pericardial effusion Total,[1],0
same,irAE Pneumonitis Gr 1,[1],0
same,irAE Pneumonitis Gr 2,[1],0
same,irAE Pneumonitis Gr 3,[1],1 (4%)
same,irAE Pneumonitis Gr 4,[1],0
same,irAE Pneumonitis Total,[1],1 (4%)
same,irAE Rash/pruritis/dry skin Gr 1,[1],4 (17%)
same,irAE Rash/pruritis/dry skin Gr 2,[1],0
same,irAE Rash/pruritis/dry skin Gr 3,[1],1 (4%)
same,irAE Rash/pruritis/dry skin Gr 4,[1],0
same,irAE Rash/pruritis/dry skin Total,[1],5 (21%)
same,"treatment discontinued due to toxicity, number of patients",[1],2 patients
same,"treatment discontinued due to toxicity, share of patients",[1],8%
same,change from pre-treatment to on-treatment CD8+ TIL scores,CD8+ T cells,significant increase
same,"disease control rate, interim analysis","[2]; immunotherapy naive patients, p=0.024",58%
same,"PRs, interim analysis","[2]; immunotherapy naive patients, p=0.026",25%
same,ORR in pts with low pre-treatment tumor bed TIL (score=1),[2]; in vivo,33.3%
same,Best Response: Progressive Disease,"[2]; patients n (%), first-line mNSCLC",10 (42%)
same,Disease Control Rate,"[2]; patients n (%), first-line mNSCLC, p = 0.024 between arms",14 (58%)
same,Best Response: Partial Response,"[2]; patients n (%), first-line mNSCLC, p = 0.026 between arms",6 (25%)

# — patent US20240226039A1, “IMMUNE CHECKPOINT INHIBITOR AND HDAC INHIBITOR COMBINATION THERAPY STRATEGY” (H. Lee Moffitt Cancer Center and Research Institute, Inc., priority 2021, published 2024)
